Test results published in patent US12534533B2, “Anti-chemokine like receptor 1 humanized antibodies and their therapeutic applications” (OSE IMMUNOTHERAPEUTICS, priority 2019, dated 2026).

Tests used:
[1] = test system: Mice dendritic cells; assay: DCs maturation and differentiation, activation markers by FACS; assay type: cell-based
Experimental: FIG. 1. Effect of the anti-CMKLR1 variants 1G1, 2G1, 3G1 and 4G1 chimeric antibodies on the DCs maturation and differentiation. Mice dendritic cells were incubated during maturation phase (24 h or 48 h) followed by a differentiation phase with excipient or RvE1 or anti-CMKLR1 antibodies variants (mutations on positions 1 and 2 of SEQ ID No. 8, corresponding to the VH-CDR3: 1G1 (LL), 2G1 (LI), 3G1 (IL) or 4G1 (II) or isotype controls (hIgG1 or mIgG)). Cells were then stained for FACS analysis with cell marker antibodies: A. CD80-PE; B. CD86-FITC; C. CD103-PerCPCy5.5; D. I/Ab-APC. Mean of Fluorescence was determined in each condition. E and F represent the viability of the cells measured by FACS using LIVE/DEAD® kit from Life Technologies in each condition after 24 or 48 hours of maturation respectively.
FIG. 16. Study of the myeloid cell activation markers after CMKLR1 pathway activation. Dendritic cells incubated in excipient, RvE1, 2G1 or isotype control (hIgG1) were then stained for FACS analysis with marker antibodies: A. CD80-PE. B. CD86-FITC. C. CD103-PerCPCy5.5. D. CD40-PeCy7. E. I/Ab-APC. Mean of Fluorescence was determined in each condition.
Bone marrow cells were harvested and cultured in RPMI medium supplemented with 10% FBS, glutamine and antibiotics and the dendritic cell differentiation was induced by GM-CSF at 20 ng/ml for 7 days. Then, immature dendritic cells (iDC) were collected and cultured for 24 hours with LPS (100 ng/ml) to induce the maturation from iDC to mDC. Treatments were added during differentiation and maturation at 2 μg/ml.
Dendritic cells were resuspended in PBS-FBS-EDTA and incubated with live and dead (LIVE/DEAD® Fixable Dead Cell Stains Yellow-Life Technologies) for 30 minutes on ice. Staining of CD11c-BV711, CD11b-APCCy7, I/Ab-APC, CD103-PerCPCy5.5, CCR7-V450, CD40-PeCy7, CD80-PE, CD86-FITC (all provided by BD Pharmingen) were performed.

[2] = test system: spontaneous colitis in IL-10KO mice; assay: IL10 KO spontaneous chronic inflammatory colitis model; assay type: in vivo; settings: vs isotype control
Experimental: FIG. 4. Effect of an anti-CMKLR1 antibody on a IL10 KO mice chronic inflammatory colitis model. Mice KO for IL10 develop a spontaneous inflammatory colitis. They were treated with an Anti-CMKLR1 antibody (2G1) (□) or isotype control (hIgG1) (x) intra-peritoneally (25 μg/injection, 3 times a week). A. Animal weight loss during and after treatment. B. Animal score stool.
IL-10KO mice develop a spontaneous colitis from 20 weeks of age mostly due to the absence of regulatory T cells function through IL-10 secretion in the intestine. IL-10KO mice were followed-up three times a week from 18-week old for their weight loss and stool consistency which are clinical hallmarks of this pathology.

[3] = test system: spontaneous type 1 diabetes in NOD mice; assay: type 1 diabetes NOD model; assay type: in vivo; settings: 20 μg/injection i.p. three times a week for 2 weeks
Excerpt: FIG. 5. Effect of an anti-CMKLR1 antibody on a mice type1 non-obese diabetes model. Mice develop spontaneous diabetes. […] A. Percentage of survival, B. individual representation of blood glucose concentration in mg/dL. C. pooled representation of blood glucose concentration in mg/dL.
8 weeks-old NOD female mice were obtained from Charles River laboratory. These mice develop a spontaneous type 1 diabetes at age between 12 to 20 weeks. The diabetes initiation can be measured by the high glycaemia.

[4] = test system: peritonitis induced by Zymosan A; assay: peritonitis model (Zymosan A); assay type: in vivo, mice; settings: vs isotype control
Experimental: FIG. 7. Effect of an anti-CMKLR1 antibody on a mice peritonitis model. Preventive injection of anti-CMKLR1 was performed before Zymosan A injection (1 mg per mouse in 1 mL): RvE1 (1 μg per mouse) (●), 2G1 antibody (10 μg per mouse) (□) or isotype control antibody (x). A. PMN numbered during the first 50 hours after Zymosan A injection. B. Macrophages numbered during the first 50 hours after Zymosan A injection. C. Resolution index.
Common peritonitis is induced by intraperitoneal injection of Zymosan A® (1 mg per mouse in 1 mL). Preventive injection of anti-CMKLR1 was performed 5 minutes before Zymosan A injection: RvE1 (1 μg per mouse), 2G1 antibody (10 μg per mouse). Murine peritoneal polymorphonuclear neutrophil (PMN) and macrophages were collected at 2-4-8-16-24 and 48 h after Zymosan A injection and numbered by flow cytometry analysis to determinate the resolution index (Bannenberg et al., 2005).

[5] = test system: CT26 cells; assay: CT26 colon carcinoma model; assay type: in vivo, mice; settings: 20 μg/injection i.p. for 3 weeks from d4; FIG. 9A-C
Experimental: FIG. 9. Effect of an anti-CMKLR1 antibody on 2 different colon carcinoma mice models. Two mice models were studied, and animals received isotype control antibody (3G8) (x) or anti-CMKLR1 (2G1) (□) at 20 μg/injection intraperitoneally for 3 weeks. A-C. Results in the CT26 colon carcinoma model comparing single treatment with p84 (A) and 2G1 (B) with combined therapy with both antibodies (C). D: Results in the MC38 colon carcinoma model.
8-week old C57bl/6J male mice were anesthetized with 3% of isoflurane. Mice were shaved on the flank and MC38 cells (0.5·10≢cells/mouse) cell lines were injected subcutaneously with an insulinic syringe (30 Gauges) in 50 μL of PBS. Another model was used, in which 8-week old Balb/c male mice were anesthetized with 3% of isoflurane. Mice were shaved on the flank and CT26 cells (1.10≢cells/mouse) were injected subcutaneously with an insulinic syringe (30 Gauges) in 50 μL of PBS.
The agonistic anti-CMKLR1 antibody (2G1) or an anti-SIRPa antibody (p84-anti-mouse SIRPa from Merck Millipore) (SIRPa is a new checkpoint inhibitor) were injected once a week (20 μg/injection) intraperitoneally for 3 weeks starting at d4 after tumor inoculation alone or combined.

[6] = test system: lesions in the central nervous system induced by MOG peptide; assay: autoimmune encephalomyelitis experimental model (EAE); assay type: in vivo
Excerpt: Lesions in the central nervous system were induced by injection of the immunogenic MOG peptide combined with adjuvants.

B1: 2G1: parental chimeric anti-CMKLR1 antibody: heavy chain variable domain SEQ ID No. 37, light chain variable domain SEQ ID No. 49 (antibody, V domains shown)
VH: EVQLVASGGGLVQPGGSLKLSCAASGFTFSSYGMSWVRQTPDRRLELVATINRYGGSTYYPDSVKGRFTISRDNAKNTLYLQMSSLKSEDTAMYYCPRLIYYGNEGDSWGQGTTLTVSS
VL: QIVLTQSPAIMSASPGEKVTMTCSASSSVSFMHWYQQKSGTSPKRWIYDTTKLTSGVPARFSGSGSGTFYSLTISSMEAEDAATYYCQQWNSKPPLTFGPGTKLELKR
viability of cells ([1]; LIVE/DEAD kit, after 24 or 48 hours of maturation, FIGS. 1E and 1F): enhanced
expression of CD80, CD86, CD103, CD40 and IAb ([1]; compared to the excipient or isotype control, FIG. 16): strong decrease
DCs activation and/or maturation (DCs expressing CD103 and IAb) ([1]; maturation 24 h or 48 h, FIG. 1): inhibit DCs activation and/or maturation in a stronger manner than other synthetized antibodies
percentage of weight loss ([2]; 25 μg/injection i.p., 3 times a week for 2 weeks, FIG. 4A): lost less weight
score stool ([2]; FIG. 4B): better score stool
Percentage of survival ([3]; FIG. 5A): better survival percentage
glycaemia (blood glucose concentration) ([3]; FIG. 5B-C): almost normal glycaemia
PMNs number ([4]; first 50 hours after Zymosan A, FIG. 7A): slightly less
Macrophages number ([4]; first 50 hours after Zymosan A, FIG. 7B): slightly less
resolution index ([4]; FIG. 7C): better resolution index
tumor development [5]: did not demonstrate a clinical effect on the tumor development
Weight variation overtime ([6]; curative administration, 1 mg/kg from clinical score 2, FIG. 32A): does not lead to the reduction of the weight
illness score lower than control ([6]; ten-day posttreatment): approximately 30%
illness score ([6]; vs control antibody, FIG. 32B): significantly reduced
